Test results: patent publication US20160333101A1 (GENOR BIOPHARMA, published 2016)
Each block holds one binder with its values, some of them ahead of it.

B1: recombinant human RANKL (ligand)
chain: HHHHHHHHHHGSQHIRAEKAMVDGSWLDLAKRSKLEAQPFAHLTINATDIPSGSHKVSLSSWYHDRGWAKISNMTFSNGKLIVNQDGFYYLYANICFRHHETSGDLATEYLQLMVYVTKTSIKIPSSHTLMKGGSTKYWSGNSEFHFYSINVGGFFKLRSGEEISIEVSNPSLLDPDQDATYFGAFKVRDID
B6: commercial hRANKL standard (ligand, human, UniProt O14788 140-317, looked up)
chain: IRAEKAMVDGSWLDLAKRSKLEAQPFAHLTINATDIPSGSHKVSLSSWYHDRGWAKISNMTFSNGKLIVNQDGFYYLYANICFRHHETSGDLATEYLQLMVYVTKTSIKIPSSHTLMKGGSTKYWSGNSEFHFYSINVGGFFKLRSGEEISIEVSNPSLLDPDQDATYFGAFKVRDID

Tests used:
RANK on RAW264.7 cells = molecular target: T1, RANK on RAW264.7 cells (mouse (RAW264.7 cells), UniProt O35305 31-625); assay: cell-based or functional assay
T1 sequence (looked up): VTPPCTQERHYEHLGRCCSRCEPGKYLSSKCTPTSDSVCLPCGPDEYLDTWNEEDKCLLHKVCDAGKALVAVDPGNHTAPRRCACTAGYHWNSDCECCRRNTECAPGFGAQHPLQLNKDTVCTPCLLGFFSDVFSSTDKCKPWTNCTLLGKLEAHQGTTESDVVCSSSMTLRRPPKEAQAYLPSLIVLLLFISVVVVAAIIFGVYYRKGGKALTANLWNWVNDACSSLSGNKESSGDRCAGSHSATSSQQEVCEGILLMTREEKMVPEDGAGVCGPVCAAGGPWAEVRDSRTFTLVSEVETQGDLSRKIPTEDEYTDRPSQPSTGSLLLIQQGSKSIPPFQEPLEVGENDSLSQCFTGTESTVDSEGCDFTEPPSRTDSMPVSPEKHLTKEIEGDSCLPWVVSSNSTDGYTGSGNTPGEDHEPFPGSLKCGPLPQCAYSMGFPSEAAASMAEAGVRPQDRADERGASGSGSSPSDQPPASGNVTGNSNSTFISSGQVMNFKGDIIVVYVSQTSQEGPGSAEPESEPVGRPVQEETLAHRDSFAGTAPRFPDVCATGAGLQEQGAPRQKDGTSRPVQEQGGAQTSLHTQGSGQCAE

[1] = molecular target: B6; assay: ELISA, coated commercial hRANKL standard, RANK-Fc titrated, anti-human IgG-Fc
Method: (§1) The samples are diluted to 1 μg/ml, was added 100 and incubated overnight at 4° C. RANK-Fc gradient diluted from 10 μg/ml is added, 1:20,000 dilution of secondary antibody (goat anti-human IgG-Fc) is added, the sample is incubated for 1 hour at room temperature, is colored using TMB chromogenic color system. Absorbance value to each well of the 96-well plate is measured on the multifunction microplate reader with a measurement wavelength of 450 nm, a reference wavelength of 630 nm, absorbance value to each well (OD)=OD450 nm-OD630 nm.

recombinant human RANKL [2] = molecular target: B1; assay: ELISA, coated recombinant human RANKL, RANK-Fc titrated, anti-human IgG-Fc
Method: as §1

recombinant human RANKL [3] = molecular target: B1; assay: ELISA, scFv supernatant on coated hRANKL, anti-c-myc-HRP; threshold of the clones sent for sequencing
Method: The plates are washed three times with PBST (containing 0.05% Tween 20). The plates are closed with blocking solution (PBS solution containing 2% (WN) of BSA) for 1˜1.5 hours at room temperature. […] The closed microtiter plate is incubated for 2 hours at room temperature, washed three times with PBST. […] After the microtiter plate is washed six times with PBST, TMB substrate (purchased from Cell Signaling Technology, Cat. NO.7004) is added, and the samples are colored at room temperature for 10 minutes, 50 μl 2 M HCl is added in each well to terminate the color, and OD450 nm reading is detected using the M5 equipment.
If OD450>0.4, it is considered as a positive coloration.

recombinant human RANKL [4] = molecular target: B1; assay: cell-based or functional assay
recombinant human RANKL [5] = molecular target: B1; assay: cell-based or functional assay; remark: listed apart in the source

EC50 [1]: 0.0056 µg/mL
EC50 (recombinant human RANKL [2]): 0.0109 µg/mL
B2: RANK-Fc (Fc fusion)
chain: IAPPCTSEKHYEHLGRCCNKCEPGKYMSSKCTTTSDSVCLPCGPDEYLDSWNEEDKCLLHKVCDTGKALVAVVAGNSTTPRRCACTAGYHWSQDCECCRRNTECAPGLGAQHPLQLNKDTVCKPCLAGYFSDAFSSTDKCRPWTNCTFLGKRVEHHGTEKSDAVCSSSLPARKPPNEPHVYLP
notes: Bought from R & D Systems; also called receptor RANK-Fc; not shown: Human IgG Fc part and any linker of the bought R & D Systems RANK-Fc

OD450 (recombinant human RANKL [3]): 1.2
B4: pFL249-H114 (scFv)
scFv: QVQLVQSGAELVQPGASVKLSCKASGYTFTTYWLQWVRQTPGQGLEWMGAIYPGPGNTKYTQKFKDRVTITADTSTSTAYMQLNSLRSEDSAVYYCARRGSRRGIAYWGQGTLVTVSAASSGGGGSGGGGSGGGGSSNIVLTQSPASLAVSLGQRATISCRASESVDSYGRSFMHWYQQRPGQPPTLLIYLASNLESGVPVRFSGSGSRTDFTLTIDPVEADDAATYYCQQDNEDPYTFGGGTKLEIK
notes: scFv in IPTG-induced E. coli supernatant, screened by ELISA; also called H114 scFv clone of the VH library; not shown: c-myc tag and his tag of vector pFL249

OD450 (recombinant human RANKL [3]): 1.2
B5: pFL249-H16 (scFv)
scFv: QVQLVQSGAELKKPGASVKLSCKASGYTFTTYWLQWVRQAPGQGLEWMGAIYPGPGNTKYTQKFKDRFTITADKSKSTAYMQLNSLKSEDSAVYYCARRGSRRGIAYWGQGTLVTVSAASSGGGGSGGGGSGGGGSSNIVLTQSPASLAVSLGQRATISCRASESVDSYGRSFMHWYQQRPGQPPTLLIYLASNLESGVPVRFSGSGSRTDFTLTIDPVEADDAATYYCQQDNEDPYTFGGGTKLEIK
notes: scFv in IPTG-induced E. coli supernatant, screened by ELISA; also called H16 scFv clone of the VH library; not shown: c-myc tag and his tag of vector pFL249

IC50 for inhibiting hRANKL induced RAW264.7 cell differentiation (recombinant human RANKL [4]): 0.247 µg/mL
IC50 (ng/ml) in RAW264.7 cells, osteoclast differentiation induced by RANKL (recombinant human RANKL [5]): ~517 ng/mL
B7: G14 (antibody, human IgG2, kappa, V domains shown)
VH: QVQLVQSGAEVKKPGASVKVSCKASGYTFTTYWLQWVRQAPGQGLEWMGAIYPGPGNTKYTQKFKDRVTITADESTSTAYMELSSLRSEDTAVYYCARRGSRRGIAYWGQGTLVTVSA
VL: DIVMTQSPDSLAVSLGERATINCRASESVDSYGRSFMHWYQQKPGQAPRLLIYLASNLESGVPSRFSGSGSGTDFTLTINSLEAEDAATYYCQQDNEDPYTFGGGTKLEIKG

Continued, binder first:

Binder: B1
EC50 of inducing RAW264.7 cells to be differentiated into osteoclasts (tartrate-resistant acid phosphatase, pNPP) (RANK on RAW264.7 cells): 113 ng/ml

B3: pFL249-H16u (scFv)
scFv: QVQLVQSGAELKKPGASVKLSCKASGYTFTTYWLQWVRQAPGQGLEWMGAIYPGPGNTKYTQKFKDRFTITADTSKSTAYMQLNSLKSEDSAVYYCARRGSRRGIAYWGQGTLVTVSAASSGGGGSGGGGSGGGGSSNIVLTQSPASLAVSLGQRATISCRASESVDSYGRSFMHWYQQRPGQPPTLLIYLASNLESGVPVRFSGSGSRTDFTLTIDPVEADDAATYYCQQDNEDPYTFGGGTKLEIK
notes: scFv in IPTG-induced E. coli supernatant, screened by ELISA; also called H16u scFv clone of the VH library; not shown: c-myc tag and his tag of vector pFL249
OD450 (recombinant human RANKL [3]): 1.2

Binder: B6
EC50 of inducing RAW264.7 cells to be differentiated into osteoclasts (tartrate-resistant acid phosphatase, pNPP) (RANK on RAW264.7 cells): 35.7 ng/ml
